Laboratory results published in the supplement of paper PMC10567573.

B1: SASS6 (parent)
chain: QKELQDVGQSLRIKEQEVCKLQEQ

Variants of: B1
Assay: protein stability index of a GFP-peptide fusion (GPS, HEK-293T) (PSI 1-6); higher = more stable
Conditions: c terminus: a fixed tail appended
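Also: lentivirally expressed fusions sorted by FACS into six bins by GFP to DsRed ratio, PSI derived from sequencing read proportions per bin multiplied by bin number.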

Row | Variant | protein stability index
1 | QKEIQDVGQSLRIKEQEVCKLQEQ [L4I] | 5.34
2 | QKEYQDVGQSLRIKEQEVCKLQEQ [L4Y] | 4.98
3 | QKEAQDVGQSLRIKEQEVCKLQEQ [L4A] | 5.25
4 | QKEVQDVGQSLRIKEQEVCKLQEQ [L4V] | 5.28
5 | QKEDQDVGQSLRIKEQEVCKLQEQ [L4D] | 5.57
6 | QKEHQDVGQSLRIKEQEVCKLQEQ [L4H] | 5.68
7 | QKEQQDVGQSLRIKEQEVCKLQEQ [L4Q] | 4.24
8 | QKEPQDVGQSLRIKEQEVCKLQEQ [L4P] | 5.34
9 | QKEMQDVGQSLRIKEQEVCKLQEQ [L4M] | 3.98
10 | QKELQKVGQSLRIKEQEVCKLQEQ [D6K] | 5.23
11 | QKELQSVGQSLRIKEQEVCKLQEQ [D6S] | 4.91
12 | QKELQQVGQSLRIKEQEVCKLQEQ [D6Q] | 5.31
13 | QKELQNVGQSLRIKEQEVCKLQEQ [D6N] | 4.9
14 | QKELQLVGQSLRIKEQEVCKLQEQ [D6L] | 4.14
15 | QKELQGVGQSLRIKEQEVCKLQEQ [D6G] | 5
16 | QKELQYVGQSLRIKEQEVCKLQEQ [D6Y] | 4.58
17 | QKELQEVGQSLRIKEQEVCKLQEQ [D6E] | 5.05
18 | QKELQAVGQSLRIKEQEVCKLQEQ [D6A] | 5.17
19 | QKELQPVGQSLRIKEQEVCKLQEQ [D6P] | 5.26
20 | QKELQTVGQSLRIKEQEVCKLQEQ [D6T] | 4.74
21 | QKELQMVGQSLRIKEQEVCKLQEQ [D6M] | 5.02
22 | QKELQFVGQSLRIKEQEVCKLQEQ [D6F] | 3.81
23 | QKELQVVGQSLRIKEQEVCKLQEQ [D6V] | 4.46
24 | QKELQHVGQSLRIKEQEVCKLQEQ [D6H] | 4.62

Row | Variant | protein stability index
25 | QKELQDVGQSLKIKEQEVCKLQEQ [R12K] | 5.55
26 | QKELQDVGQSLCIKEQEVCKLQEQ [R12C] | 4.81
27 | QKELQDVGQSLDIKEQEVCKLQEQ [R12D] | 4.03
28 | QKELQDVGQSLIIKEQEVCKLQEQ [R12I] | 5.14
29 | QKELQDVGQSLGIKEQEVCKLQEQ [R12G] | 5.6
30 | QKELQDVGQSLAIKEQEVCKLQEQ [R12A] | 5.34
31 | QKELQDVGQSLHIKEQEVCKLQEQ [R12H] | 5.41
32 | QKELQDVGQSLEIKEQEVCKLQEQ [R12E] | 5.71
33 | QKELQDVGQSLFIKEQEVCKLQEQ [R12F] | 5.02
34 | LKELQDVGQSLRIKEQEVCKLQEQ [Q1L] | 4.46
35 | TKELQDVGQSLRIKEQEVCKLQEQ [Q1T] | 4.55
36 | PKELQDVGQSLRIKEQEVCKLQEQ [Q1P] | 4.91
37 | NKELQDVGQSLRIKEQEVCKLQEQ [Q1N] | 5.75
38 | MKELQDVGQSLRIKEQEVCKLQEQ [Q1M] | 4.5
39 | YKELQDVGQSLRIKEQEVCKLQEQ [Q1Y] | 4.78
40 | SKELQDVGQSLRIKEQEVCKLQEQ [Q1S] | 4.63
41 | VKELQDVGQSLRIKEQEVCKLQEQ [Q1V] | 4.88
42 | QKELQDVGQSARIKEQEVCKLQEQ [L11A] | 5.25
43 | QKELQDVGQSQRIKEQEVCKLQEQ [L11Q] | 5.54
44 | QKELQDVGQSSRIKEQEVCKLQEQ [L11S] | 5.47
45 | QKELQDVGQSYRIKEQEVCKLQEQ [L11Y] | 5.21
46 | QKELQDVGQSNRIKEQEVCKLQEQ [L11N] | 5.77
47 | QKELQDVGQSTRIKEQEVCKLQEQ [L11T] | 5.67
48 | QKELQDVGQSCRIKEQEVCKLQEQ [L11C] | 5.09

Row | Variant | protein stability index
49 | QKELQDVGQSPRIKEQEVCKLQEQ [L11P] | 5.37
50 | QKELQDVGQSVRIKEQEVCKLQEQ [L11V] | 5.39
51 | QKELQDVGQSFRIKEQEVCKLQEQ [L11F] | 5.26
52 | QKELQDVGQSMRIKEQEVCKLQEQ [L11M] | 5.6
53 | QKELQDVGQSIRIKEQEVCKLQEQ [L11I] | 5.39
54 | QKELQDVGQSWRIKEQEVCKLQEQ [L11W] | 5.11
55 | QKELQDVGQSHRIKEQEVCKLQEQ [L11H] | 5.36
56 | QKELQDVGQSGRIKEQEVCKLQEQ [L11G] | 5.88
57 | QKELQDVGQSDRIKEQEVCKLQEQ [L11D] | 5.75
58 | QKELQDVGQSERIKEQEVCKLQEQ [L11E] | 5.84
59 | QKELQDVGQSKRIKEQEVCKLQEQ [L11K] | 5.12
60 | QKELLDVGQSLRIKEQEVCKLQEQ [Q5L] | 2.94
61 | QKELFDVGQSLRIKEQEVCKLQEQ [Q5F] | 4.27
62 | QKELKDVGQSLRIKEQEVCKLQEQ [Q5K] | 5.7
63 | QKELIDVGQSLRIKEQEVCKLQEQ [Q5I] | 5.02
64 | QKELSDVGQSLRIKEQEVCKLQEQ [Q5S] | 5.16
65 | QKELYDVGQSLRIKEQEVCKLQEQ [Q5Y] | 4.32
66 | QKELDDVGQSLRIKEQEVCKLQEQ [Q5D] | 5.37
67 | QKELCDVGQSLRIKEQEVCKLQEQ [Q5C] | 5.7
68 | QKELGDVGQSLRIKEQEVCKLQEQ [Q5G] | 5.69
69 | QKELNDVGQSLRIKEQEVCKLQEQ [Q5N] | 5.3
70 | QKELMDVGQSLRIKEQEVCKLQEQ [Q5M] | 5.16
71 | QKELRDVGQSLRIKEQEVCKLQEQ [Q5R] | 4.41
72 | QKELWDVGQSLRIKEQEVCKLQEQ [Q5W] | 4.79

Row | Variant | protein stability index
73 | QKELHDVGQSLRIKEQEVCKLQEQ [Q5H] | 4.91
74 | QKELTDVGQSLRIKEQEVCKLQEQ [Q5T] | 5.41
75 | QKELVDVGQSLRIKEQEVCKLQEQ [Q5V] | 5.13
76 | QKELQDWGQSLRIKEQEVCKLQEQ [V7W] | 4.64
77 | QKELQDNGQSLRIKEQEVCKLQEQ [V7N] | 4.92
78 | QKELQDQGQSLRIKEQEVCKLQEQ [V7Q] | 5.82
79 | QKELQDTGQSLRIKEQEVCKLQEQ [V7T] | 5.68
80 | QKELQDIGQSLRIKEQEVCKLQEQ [V7I] | 5.05
81 | QKELQDGGQSLRIKEQEVCKLQEQ [V7G] | 5.41
82 | QKELQDPGQSLRIKEQEVCKLQEQ [V7P] | 4.8
83 | QKELQDKGQSLRIKEQEVCKLQEQ [V7K] | 5.16
84 | QKELQDCGQSLRIKEQEVCKLQEQ [V7C] | 3.36
85 | QKELQDHGQSLRIKEQEVCKLQEQ [V7H] | 4.72
86 | QKELQDAGQSLRIKEQEVCKLQEQ [V7A] | 5.19
87 | QKELQDEGQSLRIKEQEVCKLQEQ [V7E] | 5.11
88 | QKELQDYGQSLRIKEQEVCKLQEQ [V7Y] | 5.18
89 | QKELQDSGQSLRIKEQEVCKLQEQ [V7S] | 5.76
90 | QKELQDLGQSLRIKEQEVCKLQEQ [V7L] | 5.14
91 | QKELQDFGQSLRIKEQEVCKLQEQ [V7F] | 4.73
92 | QKELQDRGQSLRIKEQEVCKLQEQ [V7R] | 5.39
93 | QKELQDDGQSLRIKEQEVCKLQEQ [V7D] | 5.71
94 | QKELQDMGQSLRIKEQEVCKLQEQ [V7M] | 3.42
